# Assay results: article PMC12053377
# Target: SARS-CoV-2 S HexaPro (Spike 6P) ectodomain trimer (SARS-CoV-2 | not stated) (UniProt P0DTC2)
# Test: cryo-EM structure
substance,measurement,value
SARS-CoV-2 S HexaPro (Spike 6P) ectodomain trimer (from UniProt P0DTC2 14-1208) (domain or fragment),stoichiometry N,3 protomers
